Here are results for four molecules from publication PMC8983781.

The target of experiment [1] is SP-C L188Q with the site 2 mutations (human) (UniProt P11686). The experiment is described as follows: co-IP; 293T cells co-transfected with an SP-C construct and one co-chaperone (BiP co-transfected in the GRP170 experiments; 20 mM NEM in wash and lysis for ERdj5); NP-40 lysates 24 h after transfection, immunoprecipitated with anti-SP-C overnight at 4 °C, Protein A agarose, washed with buffer containing 0.4 M NaCl; co-chaperones detected by western blot; in Fig. 4 signals normalised to SP-C and expressed as percent of parental L188Q.

Experiment [2] concerns the target 3HA-tagged SP-C L188Q (human) (UniProt P11686).
Substrate in experiment [3]: SP-C L188Q with the site 2 mutations (human) (UniProt P11686)
The experiment is described as follows: co-IP; 293T cells co-transfected with an SP-C construct and one co-chaperone (BiP co-transfected in the GRP170 experiments; 20 mM NEM in wash and lysis for ERdj5); NP-40 lysates 24 h after transfection, immunoprecipitated with anti-SP-C overnight at 4 °C, Protein A agarose, washed with buffer containing 0.4 M NaCl; co-chaperones detected by western blot; in Fig. 4 signals normalised to SP-C and expressed as percent …. (In general: Immunoblotting shows a protein as a band on a membrane.)

With “ERdj4-3HA (mouse) (from UniProt Q9QYI6 24-222) (natural protein)”, the percent reduction of binding against parental L188Q in experiment [1] was found to be 70%.

For the molecule “wild-type surfactant protein C (SP-C) proprotein, untagged (from UniProt P11686 1-58) (natural protein)”, the percent of wild-type SP-C that is palmitoylated (a measure of transport to the Golgi) when co-expressed with the L188Q mutant; 17.6% when expressed alone in experiment [2] is 10%.

B1: GRP170 (human) (natural protein)
chain: LAVMSVDLGSESMKVAIVKPGVPMEIVLNKESRRKTPVIVTLKENERFFGDSAASMAIKNPKATLRYFQHLLGKQADNPHVALYQARFPEHELTFDPQRQTVHFQISSQLQFSPEEVLGMVLNYSRSLAEDFAEQPIKDAVITVPVFFNQAERRAVLQAARMAGLKVLQLINDNTATALSYGVFRRKDINTTAQNIMFYDMGSGSTVCTIVTYQMVKTKEAGMQPQLQIRGVGFDRTLGGLEMELRLRERLAGLFNEQRKGQRAKDVRENPRAMAKLLREANRLKTVLSANADHMAQIEGLMDDVDFKAKVTRVEFEELCADLFERVPGPVQQALQSAEMSLDEIEQVILVGGATRVPRVQEVLLKAVGKEELGKNINADEAAAMGAVYQAAALSKAFKVKPFVVRDAVVYPILVEFTREVEEEPGIHSLKHNKRVLFSRMGPYPQRKVITFNRYSHDFNFHINYGDLGFLGPEDLRVFGSQNLTTVKLKGVGDSFKKYPDYESKGIKAHFNLDESGVLSLDRVESVFETLVEDSAEEESTLTKLGNTISSLFGGGTTPDAKENGTDTVQEEEESPAEGSKDEPGEQVELKEEAEAPVEDGSQPPPPEPKGDATPEGEKATEKENGDKSEAQKPSEKAEAGPEGVAPAPEGEKKQKPARKRRMVEEIGVELVVLDLPDLPEDKLAQSVQKLQDLTLRDLEKQEREKAANSLEAFIFETQDKLYQPEYQEVSTEEQREEISGKLSAASTWLEDEGVGATTVMLKEKLAELRKLCQGLFFRVEERKKWPERLSALDNLLNHSSMFLKGARLIPEMDQIFTEVEMTTLEKVINETWAWKNATLAEQAKLPATEKPVLLSKDIEAKMMALDREVQYLLNKAKFTKPRPRPKDKNGTRAEPPLNASASDQGEKVIPPAGQTEDAEPISEPEKVETGSEPGDTEPLELGGPGAEPEQKEQSTGQKRPLKNDEL
B1: the percent of the binding to parental L188Q in experiment [3] was found to be 30%.

B2: ERdj5 (mouse) (natural protein)
chain: DQNFYSLLGVSKTASSREIRQAFKKLALKLHPDKNPNNPNAHGDFLKINRAYEVLKDEDLRKKYDKYGEKGLEDNQGGQYESWSYYRYDFGIYDDDPEIITLERREFDAAVNSGELWFVNFYSPGCSHCHDLAPTWREFAKEVDGLLRIGAVNCGDDRMLCRMKGVNSYPSLFIFRSGMAAVKYNGDRSKESLVAFAMQHVRSTVTELSTGNFVNAIETAFAAGVGWLITFCSKGEDCLTSQTRLRLSGMLDGLVNVGWVDCDAQDSLCKSLDTTASTTAYFPPGATLNDREKSSVLFLNSLDAKEIYMEIIHNLPDFELLSANQLEDRLAHHRWLVFFHFGKNENANDPELKKLKTLLKNEHIQVGRFDCSSAPGICSDLYVFQPCLAVFKGQGTKEYEIHHGKKILYDILAFAKESVNSHVTTLGPQNFPASDKEPWLVDFFAPWCPPCRALLPELRKASTLLYGQLKVGTLDCTIHEGLCNMYNIQAYPTTVVFNQSSIHEYEGHHSAEQILEFIEDLRNPSVVSLTPSTFNELVKQRKHDEVWMVDFYSPWCHPCQVLMPEWKRMARTLTGLINVGSVDCQQYHSFCTQENVQRYPEIRFYPQKSSKAYQYHSYNGWNRDAYSLRSWGLGFLPQASIDLTPQTFNEKVLQGKTHWVVDFYAPWCGPCQNFAPEFELLARMIKGKVRAGKVDCQAYPQTCQKAGIKAYPSVKLYQYERAKKSIWEEQINSRDAKTIAALIYGKLETLQSQVKRNKDEL
Take B2: the percent reduction of binding against parental L188Q in experiment [3] turned out to be 30%.
